PMC7804408, “Functional cooperativity between the trigger factor chaperone and the ClpXP proteolytic complex” (Nature Communications, 2021)

B1: ClpX (enzyme)
chain: not shown
notes: E. coli ClpX unfoldase (N-terminal ZBD and C-terminal AAA+ domain); expressed from pProEXHTb ClpX; the SPR running buffer held EDTA and no nucleotide, and the oligomeric state in that assay was not measured; also called WT ClpX; full-length ClpX; source: E. coli BL21(DE3), purified the same way as TF (Ni-NTA; His-tag removed with TEV protease)
B2: λ phage replication protein λO (natural protein, UniProt P03688 1-333, looked up)
chain: MTNTAKILNFGRGNFAGQERNVADLDDGYARLSNMLLEAYSGADLTKRQFKVLLAILRKTYGWNKPMDRITDSQLSEITKLPVKRCNEAKLELVRMNIIKQQGGMFGPNKNISEWCIPQNEGKSPKTRDKTSLKLGDCYPSKQGDTKDTITKEKRKDYSSENSGESSDQPENDLSVVKPDAAIQSGSKWGTAEDLTAAEWMFDMVKTIAPSARKPNFAGWANDIRLMRERDGRNHRDMCVLFRWACQDNFWSGNVLSPAKLRDKWTQLEINRNKQQAGVTASKPKLDLTNTDWIYGVDLKTSPHRWLTLTVSRCVGSPTTCRNSTTKSRRYSR
notes: replication protein O of phage λ
B3: zinc-binding domain (ZBD) of ClpX (domain or fragment, E. coli)
chain: TDKRKDGSGKLLYCSFCGKSQHEVRKLIAGPSVYICDECVDLCNDIIREEIKEVAPHRER
notes: Tag removal rests on the words 'purified by the same procedure as TFN'; Isotopically labelled in one NMR experiment; also called ClpX ZBD; ZBD dimer; source: E. coli BL21(DE3), purified (Ni Sepharose, gel filtration; same procedure as TFN; 100 μM ZnCl2 added before size exclusion)
B4: trigger factor (TF) (natural protein, E. coli, UniProt P0A850 1-432, looked up)
chain: MQVSVETTQGLGRRVTITIAADSIETAVKSELVNVAKKVRIDGFRKGKVPMNIVAQRYGASVRQDVLGDLMSRNFIDAIIKEKINPAGAPTYVPGEYKLGEDFTYSVEFEVYPEVELQGLEAIEVEKPIVEVTDADVDGMLDTLRKQQATWKEKDGAVEAEDRVTIDFTGSVDGEEFEGGKASDFVLAMGQGRMIPGFEDGIKGHKAGEEFTIDVTFPEEYHAENLKGKAAKFAINLKKVEERELPELTAEFIKRFGVEDGSVEGLRAEVRKNMERELKSAIRNRVKSQAIEGLVKANDIDVPAALIDSEIDVLRRQAAQRFGGNEKQALELPRELFEEQAKRRVVVGLLLGEVIRTNELKADEERVKGLIEEMASAYEDPKEVIEFYSKNKELMDNMRNVALEEQAVEAVLAKAKVTEKETTFNELMNQQA

What was measured:
trigger factor (TF) = target: B4; test: SPR; TF immobilised on a CM5 chip by amine coupling, analytes injected at 20 μL/min for 90 s; Biacore X, 22 °C; 10 mM HEPES pH 7.5, 150 mM NaCl, 3 mM EDTA, 0.005% P20; steady-state response against concentration, one-site Langmuir model; apparent Kd for ClpX; conditions: both partners purified
[1] = target: HV-ClpX (N-terminally tagged ClpX) (E. coli, UniProt P0A6H1 1-424); test: cell-based or functional assay
HV-ClpX (N-terminally tagged ClpX), sequence (P0A6H1 whole entry): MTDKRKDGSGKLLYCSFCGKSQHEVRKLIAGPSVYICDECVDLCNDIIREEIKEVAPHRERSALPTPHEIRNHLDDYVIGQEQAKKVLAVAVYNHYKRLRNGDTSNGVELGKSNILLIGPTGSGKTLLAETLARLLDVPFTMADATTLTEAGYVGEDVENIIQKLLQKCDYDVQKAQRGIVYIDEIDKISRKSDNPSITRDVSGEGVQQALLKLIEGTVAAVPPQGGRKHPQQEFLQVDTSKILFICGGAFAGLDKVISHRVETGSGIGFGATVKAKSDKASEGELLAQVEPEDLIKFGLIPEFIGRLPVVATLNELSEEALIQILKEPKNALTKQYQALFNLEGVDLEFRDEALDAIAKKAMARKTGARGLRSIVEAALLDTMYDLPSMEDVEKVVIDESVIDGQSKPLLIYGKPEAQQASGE

| Binder | Kd (trigger factor (TF)) [µM] | clipping of HV-ClpX by bound ClpP with ATP, rate of disappearance of HV-ClpX with and without TF (Fig. 3b) [1] [fold] |
| --- | --- | --- |
| B1 | 9.3 | – |
| B2 | 3.8 | – |
| B3 | 12.8 | – |
| B4 | – | > 2 |
